Data on 9 variants can be found in the supplement of paper PMC7125110.

The labels stand for the following.
B1: glmS ribozyme (parent)
chain: AUAAAAGCGCCAGAACUACAGAAAUGUAGUUGACGAGGAGGAGGUUUAUCGAAUUUUCGGCGGAUGCCUCCAAA

Common to all, as to settings: with glucosamine-6-phosphate
The variants in series [1] derive from B1. The series can be described thus: kcat; higher = faster cleavage; RNA array. The gist of the method:
(§1)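 Glucosamine-6-phosphate, from 40 μM to 10 mM in HEPES/KCl/Mg(OAc)2 buffer, was flowed over sequenced MiSeq chips carrying barcoded ribozyme variants transcribed in situ by E. coli RNA polymerase. A hybridised Cy3 probe tracked the variants at 37 °C as tiles were imaged over ~14 h. kobs, kcat and KM were obtained by fitting normalised per-tile medians to exponential decays and then applying weighted Michaelis–Menten fits across concentrations.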

Variants of B1 are the subject of series [2]. As to the kind of experiment: KM; higher = weaker cofactor use; RNA array. Put shortly: as §1
Variants of B1 are the subject of series [3]. As to the kind of experiment: self-cleavage kobs at 2500 uM GlcN6P; higher = faster cleavage; RNA array. The gist of the method:
as §1

Variants of B1 are the subject of series [4]. The series can be described thus: self-cleavage kobs at 10000 uM GlcN6P; higher = faster cleavage; RNA array. The gist of the method: as §1
In series [5] the parent is B1. As to the kind of experiment: self-cleavage kobs at 40 uM GlcN6P; higher = faster cleavage; RNA array. The gist of the method: as §1
Series [6] covers variants of B1. The series can be described thus: self-cleavage kobs at 160 uM GlcN6P; higher = faster cleavage; RNA array. Put shortly: as §1
In series [7] the parent is B1. As to the kind of experiment: self-cleavage kobs at 640 uM GlcN6P; higher = faster cleavage; RNA array. The gist of the method:
as §1

± gives the standard error. For some assays here: Variants at the floor of the assay were thinned out.

Usually kcat stands for the number of substrate molecules converted per active site and unit of time at saturation. A word on the KM: it is the substrate concentration at which the rate is half of its maximum. AUAAAAGCGCCAGAACUACAGAAAUGUAGUUAACGAGGAGGAGGUUUAUCGAAUUUUCGGCGGAUCCCUCCAAA: the kcat in the series with glucosamine-6-phosphate [1] was determined as 5.52e-05 ± 1.5e-06 s⁻¹. Also, the Michaelis-Menten constant (KM) with glucosamine-6-phosphate [2] was 1250 ± 160 µM. Besides, the “self-cleavage kobs at 2500 uM GlcN6P” value in the series with glucosamine-6-phosphate [3] was found to be 3.72e-05 ± 1.6e-05 s⁻¹. In addition, in the series with glucosamine-6-phosphate [4], the “self-cleavage kobs at 10000 uM GlcN6P” value was found to be 4.9e-05 ± 1.4e-05 s⁻¹.
On to AUAAAAGCGCCAGAACUACAGAAAUGUAAUUGACGAGCAGGAGGUUUAUCGAAUUUUCGGCGGAUGCCUCCAAA, for which, in the series with glucosamine-6-phosphate [1], the kcat is < 1e-05 s⁻¹. The “self-cleavage kobs at 10000 uM GlcN6P” value with glucosamine-6-phosphate [4] was < 1e-05 s⁻¹.
With AUAAAAGCGCCAGAACUACAGAAAUGUAGUUGUCGAGGAGGAGGUUUAUCGAAGUUUCGGCGGAUGCCUCCAAA, in the series with glucosamine-6-phosphate [1], the catalytic constant (kcat) amounted to 0.000139 ± 4.4e-05 s⁻¹. The “self-cleavage kobs at 40 uM GlcN6P” value in the series with glucosamine-6-phosphate [5] is < 1e-05 s⁻¹. The “self-cleavage kobs at 160 uM GlcN6P” value with glucosamine-6-phosphate [6] was < 1e-05 s⁻¹. For the same variant, in the series with glucosamine-6-phosphate [7], the “self-cleavage kobs at 640 uM GlcN6P” value amounted to 4.57e-05 ± 1.6e-05 s⁻¹. For the same variant, the “self-cleavage kobs at 2500 uM GlcN6P” value with glucosamine-6-phosphate [3] was determined as 5.67e-05 ± 9.8e-06 s⁻¹. For the same variant, the “self-cleavage kobs at 10000 uM GlcN6P” value in the series with glucosamine-6-phosphate [4] worked out at 0.000111 ± 1.8e-05 s⁻¹.
Regarding AUAAAAGCGCCAGCACUACAGAAAUGUAGUUGACGAGGAGGAGGUCUAUCGAAUUUUCGGCGGAUGCCUCCAAA, the kcat with glucosamine-6-phosphate [1] was determined as 0.000346 ± 4.7e-05 s⁻¹. In addition, in the series with glucosamine-6-phosphate [2], the KM was determined as 1090 ± 350 µM. The “self-cleavage kobs at 160 uM GlcN6P” value with glucosamine-6-phosphate [6] came to 5.14e-05 ± 1.9e-05 s⁻¹. The “self-cleavage kobs at 640 uM GlcN6P” value with glucosamine-6-phosphate [7] is 0.000128 ± 2.4e-05 s⁻¹. In the series with glucosamine-6-phosphate [4], the “self-cleavage kobs at 10000 uM GlcN6P” value turned out to be 0.000326 ± 4.5e-05 s⁻¹.
With AUAAAAGCGCCGGAACUACAGAAAUGUAGCUGACGAGGAGGAGGUUUAUCGAAUUUUCGGCGGAUGCCUCCAAA, the turnover number (kcat) with glucosamine-6-phosphate [1] is 0.000109 ± 8.8e-06 s⁻¹. In the series with glucosamine-6-phosphate [2], the Michaelis constant (KM) was 3180 ± 800 µM. Besides, the “self-cleavage kobs at 640 uM GlcN6P” value with glucosamine-6-phosphate [7] was determined as 2.84e-05 ± 1.3e-05 s⁻¹. In addition, the “self-cleavage kobs at 2500 uM GlcN6P” value with glucosamine-6-phosphate [3] worked out at 4.54e-05 ± 7.7e-06 s⁻¹. The “self-cleavage kobs at 10000 uM GlcN6P” value in the series with glucosamine-6-phosphate [4] stood at 8.29e-05 ± 5.8e-06 s⁻¹.
As for AUAAAAGCGCCAGAACUACAGAAAUGUAGUUGACGAGGAGGAUGUUUAUCGAAUUUUCGGCGGAGGCCUCCAAA, in the series with glucosamine-6-phosphate [1], the kcat was determined as 4.38e-05 ± 9.2e-07 s⁻¹. In addition, the KM with glucosamine-6-phosphate [2] is 2380 ± 190 µM. In the series with glucosamine-6-phosphate [5], the “self-cleavage kobs at 40 uM GlcN6P” value is < 1e-05 s⁻¹. Further, the “self-cleavage kobs at 10000 uM GlcN6P” value in the series with glucosamine-6-phosphate [4] was determined as 3.53e-05 ± 1.1e-05 s⁻¹.
AUAAAAGCGCCAGAACUACAGAAAUGUAGUUGACGAGGAGGAGUUUUAUCGAAAUUUCGGCGGAUGCCUCCAAA: the kcat with glucosamine-6-phosphate [1] worked out at 0.000233 ± 6.1e-05 s⁻¹. In addition, the “self-cleavage kobs at 640 uM GlcN6P” value with glucosamine-6-phosphate [7] turned out to be 0.000111 ± 3.6e-05 s⁻¹. Besides, the “self-cleavage kobs at 2500 uM GlcN6P” value with glucosamine-6-phosphate [3] came out at 0.000132 ± 4.1e-05 s⁻¹. Moreover, the “self-cleavage kobs at 10000 uM GlcN6P” value with glucosamine-6-phosphate [4] was 0.000252 ± 6.1e-05 s⁻¹.
AUAAAAGCGCCAGCACUACAGAAAUGUAGUUGACGAGGAGGAGGUUUAUCGAAUUUUAGGCGGAUGCCUCCAAA: the turnover number (kcat) with glucosamine-6-phosphate [1] amounted to 0.000221 ± 1.4e-05 s⁻¹. Besides, the Michaelis-Menten constant (KM) in the series with glucosamine-6-phosphate [2] worked out at 3250 ± 500 µM. Further, the “self-cleavage kobs at 640 uM GlcN6P” value in the series with glucosamine-6-phosphate [7] worked out at 3.29e-05 ± 1.1e-05 s⁻¹. The “self-cleavage kobs at 2500 uM GlcN6P” value in the series with glucosamine-6-phosphate [3] was 0.000102 ± 1.6e-05 s⁻¹. The “self-cleavage kobs at 10000 uM GlcN6P” value with glucosamine-6-phosphate [4] is 0.000165 ± 1.7e-05 s⁻¹.
As to AUAAAAGCGCCAGAAAUACAGAAAUGUAGUUGACGAGGAGAAGGUUUAUCGAAUUUUCGGCGGAUGCCUCCAAA, the kcat with glucosamine-6-phosphate [1] was found to be 4e-05 ± 4.5e-07 s⁻¹. Further, the KM in the series with glucosamine-6-phosphate [2] is 806 ± 51 µM. In addition, the “self-cleavage kobs at 10000 uM GlcN6P” value in the series with glucosamine-6-phosphate [4] is 3.7e-05 ± 1.1e-05 s⁻¹.
